{"source": "patent US20250186597A1", "about": "“TARGETED IMMUNE ACTIVATION WITH IL-18 IMMUNOCYTOKINES” (BRIGHT PEAK THERAPEUTICS AG, priority 2023, published 2025)", "molecules": {"B1": {"name": "SEQ ID NO: 30: IL-18 polypeptide: E6K, V11I, C38A, K53A, T63A, C76A, C127A (protein)", "chain": "YFGKLKSKLSIIRNLNDQVLFIDQGNRPLFEDMTDSDARDNAPRTIFIISMYADSQPRGMAVAISVKCEKISTLSAENKIISFKEMNPPDNIKDTKSDIIFFQRSVPGHDNKMQFESSSYEGYFLAAEKERDLFKLILKKEDELGDRSIMFTVQNED"}}, "format_in_all_cases": "cell-based, human", "key": {"[1]": {"tested_on": "PD-1 positive (transduced) KG-1 cells", "experiment": "IFN gamma secretion assay in PD-1 transduced KG-1 cells (Example 11)", "procedure": "(§1) The KG-1 cell line was used to generate a PD-1 expressing cell line and furthermore, to measure IFNγ release upon incubation with IL-18 variants and corresponding IL-18 immunocytokines.\nPD-1 expressing cell line generation: Briefly, KG-1 cells were transduced using lentiviral particles carrying the human PD-1 gene (PDCD1 NM_005018; Origene, CAT #: RC210364L3V) at a MOI (Multiplicity of Infection) of 30. Spinfection was performed at 1260 g during 90 min at 37° C. in the presence of 5 μg/ml of Polybrene and 10 mM of HEPES in complete culture media (RPMI, 10% FBS, 1% L-Glutamine). […]\nIFNγ release was assessed in PD-1 positive (transduced) KG-1 cells, as well as in the parental PD-1 negative cells. […] The lowest concentration assessed was […]. After incubation, IFNγ release was measured using the LEGENDplex custom human mix and match KIT (Biolegend LEGENDplex™ Human IFN-γ Capture Bead B5, 13X #740942, LEGENDplex™ HU Essential Immune Response Panel Detection Abs, #740931, LEGENDplex™ Buffer Set A #740368). […] Fluorescence measurements were done with a Quanteon Flow Cytometer from Acea Biosciences. For analysis, MFI values (median fluorescence intensity) were exported and plotted against concentrations used. The EC50 values (half maximal effective concentration) were calculated based on a variable slope and four parameter analysis using GraphPad PRISM software version 9."}, "[2]": {"tested_on": "parental PD-1 negative KG-1 cells", "experiment": "IFN gamma secretion assay in parental PD-1 negative KG-1 cells (Example 11)", "settings": "IFNγ secretion", "procedure": "as §1\nIFNγ release was assessed in PD-1 positive (transduced) KG-1 cells, as well as in the parental PD-1 negative cells. 0.5×10^5 cells were seeded into a 96-well U-bottom plate in culture media (RPMI, 10% FBS, 1% L-Glutamine) and stimulated with IL-18 variants/ICs for 20-24 h. The test items were diluted to 100 nM in culture medium, followed by 7 10-fold serial dilutions. The lowest concentration assessed was […]. After incubation, IFNγ release was measured using the LEGENDplex custom human mix and match KIT (Biolegend LEGENDplex™ Human IFN-γ Capture Bead B5, 13X #740942, LEGENDplex™ HU Essential Immune Response Panel Detection Abs, #740931, LEGENDplex™ Buffer Set A #740368). To this end, cell culture supernatant was collected and diluted 1:1 with Assay Buffer. Fluorescence measurements were done with a Quanteon Flow Cytometer from Acea Biosciences. For analysis, MFI values (median fluorescence intensity) were exported and plotted against concentrations used. The EC50 values (half maximal effective concentration) were calculated based on a variable slope and four parameter analysis using GraphPad PRISM software version 9."}, "[3]": {"tested_on": "PD-1positive transduced NK-92 cells", "experiment": "IL-18BP mediated inhibition of IFN gamma secretion in PD-1 positive transduced NK-92 cells (Example 18)", "procedure": "(§2) To characterize the resistance of anti-PD1-IL18 immunocytokines (IC) on PD-1 positive cells, the NK-92 cell line was used to generate a PD-1 expressing cell line and furthermore, to measure the inhibition of IFN[…] release upon incubation with IL-18 variants and ICs in the presence of increasing quantities of human IL-18BP.\n(§3) On the day of experiment, parental PD-1^negative and PD-1^positive transduced cells were harvested and washed with PBS 1× and resuspended in medium (w/o IL-2) containing 1 ng/ml of recombinant human Interleukin-12 (SinoBiologicals, Cat #CT011-H08H). After counting, cells were seeded at 100 000 cells/well in a 384 well culture plate and incubated at 37° C./5% CO2. When indicated, cells were preincubated with anti-PD-1 antibody LZM-009 at 17 uM during 30 min at 37° C. […]\n(§4) After 16-20 h incubation at 37° C./5% CO2, 5 μl of supernatant were carefully transferred to a 384 microwell OptiIPlate (Perkin Elmer; Cat #6007270) and Interferon-gamma (IFNγ) levels measured using the Human IFNγ AlphaLISA Assay Kit (Perkin Elmer, Cat #AL217C). […] AlphaLISA signal was then measured on an Enspire plate reader (Perkin Elmer) using 680 and 615 nm as excitation and emission wavelengths respectively. Half maximal inhibitory concentration (IC50) was calculated based on a variable slope, four parameter analysis using GraphPad PRISM software."}, "[4]": {"tested_on": "parental PD-1negative NK-92 cells", "experiment": "IL-18BP mediated inhibition of IFN gamma secretion in parental PD-1 negative NK-92 cells (Example 18)", "settings": "IL-18BP-mediated inhibition of IFNγ secretion, IL-18 analyte 1 nM", "procedure": "as §2, §3, §4"}, "[5]": {"tested_on": "PD-1positive transduced NK-92 cells", "experiment": "IFN gamma secretion assay in PD-1 positive transduced NK-92 cells (Example 17)", "procedure": "To show selectivity of the anti-PD1-IL18 immunocytokine (IC) for PD-1 positive cells, the NK-92 cell line was used to generate a PD-1 expressing cell line and furthermore, to measure IFN[…] release upon incubation with IL-18 variants and ICs.\nOn the day of experiment, parental PD-1negative and PD-1positive transduced cells were harvested and washed with PBS 1× and resuspended in medium (w/o IL-2) containing 1 ng/ml of recombinant human Interleukin-12 (SinoBiologicals, Cat #CT011-H08H). After counting, cells were seeded at 100 000 cells/well in a 384 well culture plate and incubated at 37° C./5% CO2. When indicated, cells were preincubated with anti-PD-1 antibody LZM-009 at 17 uM during 30 min at 37° C. […] The lowest concentration assessed was 0.8 fM.\nas §4, with “OptiPlate” for “OptiIPlate”, “levels were” for “levels”, “effective” for “inhibitory”, “(EC50)” for “(IC50)”"}}, "data": [{"molecule": "B1", "values": [{"measurement": "EC50", "setting": "[1]; IFNγ secretion, PD-1 transduced KG-1", "value": 0.008, "unit": "nM"}, {"measurement": "PD-1^neg/PD-1^pos EC50 ratio", "setting": "[1]; KG-1 cells", "value": 1.336}, {"measurement": "EC50", "setting": "[2]", "value": 0.012, "unit": "nM"}, {"measurement": "IC50", "setting": "[3]; IL-18BP-mediated inhibition of IFNγ secretion, IL-18 analyte 1 nM", "value": 80.3, "unit": "nM"}, {"measurement": "PD-1^pos/PD-1^neg IC50 ratio", "setting": "[3]; NK-92 cells", "value": 1.0}, {"measurement": "IC50", "setting": "[4]", "value": 110, "unit": "nM"}, {"measurement": "EC50", "setting": "[5]; IFNγ secretion", "value": 0.0028, "unit": "nM"}, {"measurement": "PD-1^neg/PD-1^pos EC50 ratio", "setting": "[5]; NK-92 cells", "value": 0.9}]}]}
